# Experimental data from paper PMC5624781.
# Tests used:
# GST-EEA1_(36-91) = GST-EEA1_(36-91) (UniProt Q15075); experiment: BLI; BLItz system (ForteBio); 0.5 µM GST-Rabaptin5_(551-862) or GST-EEA1_(36-91) immobilised on anti-GST sensors; GppNHP-loaded Rab5 or mUbRab5 at several concentrations in solution; 50 mM Tris-HCl, 150 mM NaCl, 10 mM MgCl2, 1 mM GppNHP; global fit, Kd = koff/kon
# GST-Rabaptin5_(551-862) = GST-Rabaptin5_(551-862) (UniProt Q15276); experiment: as above
# EEA1 (Homo sapiens) = EEA1 (Homo sapiens) (UniProt Q15075); settings: cited from earlier work
Kd (GST-EEA1_(36-91)) [µM],Kd (GST-Rabaptin5_(551-862)) [µM],Substance,also measured
108,37.7,"mUbRab5_(K140), chemically conjugated monoubiquitinated Rab5 (ubiquitin G76C disulfide-linked to Rab5 K140C) (from UniProt P0CG48 1-76)",
5.8,8,Rab5 (unmodified Rab5a) (from UniProt P20339 1-215) (natural protein),koff (GST-EEA1_(36-91)): 0.0026 s⁻¹; kon (GST-EEA1_(36-91)): 450 M⁻¹ s⁻¹; koff (GST-Rabaptin5_(551-862)): 0.0022 s⁻¹; kon (GST-Rabaptin5_(551-862)): 660 M⁻¹ s⁻¹

# Continued, substance first:
Substance,Kd (GST-EEA1_(36-91)) [µM],Kd (GST-Rabaptin5_(551-862)) [µM],also measured
Rab5 (from UniProt P20339),,,Kd (EEA1 (Homo sapiens)): 2.4 µM
"mUbRab5_(K116), chemically conjugated monoubiquitinated Rab5 (ubiquitin G76C disulfide-linked to Rab5 K116C) (from UniProt P0CG48 1-76)",18.4,8,
"mUbRab5_(K165), chemically conjugated monoubiquitinated Rab5 (ubiquitin G76C disulfide-linked to Rab5 K165C) (from UniProt P0CG48 1-76)",4.7,,
